Data published in US20240368238A1 (DRACOTERPIN BIOMEDICINE, published 2024).

T1: IL2-Rα-his (UniProt P01589 22-240, limits assumed)
T1 construct: used as the analyte in the BLI; also called IL-2 receptor α; CD25; not shown: his tag
T1 sequence (looked up): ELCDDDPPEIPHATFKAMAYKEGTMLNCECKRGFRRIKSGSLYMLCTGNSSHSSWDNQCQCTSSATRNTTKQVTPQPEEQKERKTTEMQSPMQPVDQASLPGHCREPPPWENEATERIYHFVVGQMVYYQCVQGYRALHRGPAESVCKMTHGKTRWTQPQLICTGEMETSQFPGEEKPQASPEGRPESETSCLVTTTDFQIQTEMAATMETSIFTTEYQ

T2: IL-2Rβ/γ-Fc heterodimer (IL-2Rβ-Fc-hole + IL-2Rγ-Fc-knob) (UniProt P14784 27-240; P31785 23-262)
T2 construct: Both chains transfected together into HEK293; purified with Protein A and Superdex 200; used as the analyte in the BLI; also called IL-2Rβ/γ heterodimers; not shown: Fc hole; Fc knob
T2 sequence (looked up) 1: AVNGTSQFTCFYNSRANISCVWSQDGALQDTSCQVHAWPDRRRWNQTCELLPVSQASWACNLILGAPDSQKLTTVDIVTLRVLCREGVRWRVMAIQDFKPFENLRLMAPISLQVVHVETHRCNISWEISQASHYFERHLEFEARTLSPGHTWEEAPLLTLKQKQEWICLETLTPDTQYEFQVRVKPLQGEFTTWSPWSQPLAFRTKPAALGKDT
T2 sequence (looked up) 2: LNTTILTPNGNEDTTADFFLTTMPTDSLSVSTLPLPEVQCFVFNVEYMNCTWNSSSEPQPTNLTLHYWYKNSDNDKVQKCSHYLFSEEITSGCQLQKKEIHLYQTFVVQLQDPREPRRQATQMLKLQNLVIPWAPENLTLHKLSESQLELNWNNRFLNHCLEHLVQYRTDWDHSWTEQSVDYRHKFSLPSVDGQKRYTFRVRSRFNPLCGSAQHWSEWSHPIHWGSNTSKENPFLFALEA

T3: IL-2Rβ/γ receptor subunit complex on CTLL-2 cells (UniProt P16297 27-539; P34902 23-369)
T3 sequence (looked up) 1: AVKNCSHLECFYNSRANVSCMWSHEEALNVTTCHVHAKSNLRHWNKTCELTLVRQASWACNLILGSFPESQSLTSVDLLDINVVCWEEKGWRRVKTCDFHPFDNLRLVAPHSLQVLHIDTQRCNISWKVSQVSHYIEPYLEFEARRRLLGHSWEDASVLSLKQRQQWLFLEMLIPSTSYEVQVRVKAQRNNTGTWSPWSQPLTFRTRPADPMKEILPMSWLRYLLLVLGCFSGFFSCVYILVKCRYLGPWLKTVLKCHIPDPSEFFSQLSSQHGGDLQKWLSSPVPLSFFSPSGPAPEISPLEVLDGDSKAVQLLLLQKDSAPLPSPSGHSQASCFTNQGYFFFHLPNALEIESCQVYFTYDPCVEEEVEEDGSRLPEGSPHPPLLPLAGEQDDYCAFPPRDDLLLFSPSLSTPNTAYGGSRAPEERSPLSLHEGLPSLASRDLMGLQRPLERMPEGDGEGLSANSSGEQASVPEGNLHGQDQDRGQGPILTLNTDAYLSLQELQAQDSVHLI
T3 sequence (looked up) 2: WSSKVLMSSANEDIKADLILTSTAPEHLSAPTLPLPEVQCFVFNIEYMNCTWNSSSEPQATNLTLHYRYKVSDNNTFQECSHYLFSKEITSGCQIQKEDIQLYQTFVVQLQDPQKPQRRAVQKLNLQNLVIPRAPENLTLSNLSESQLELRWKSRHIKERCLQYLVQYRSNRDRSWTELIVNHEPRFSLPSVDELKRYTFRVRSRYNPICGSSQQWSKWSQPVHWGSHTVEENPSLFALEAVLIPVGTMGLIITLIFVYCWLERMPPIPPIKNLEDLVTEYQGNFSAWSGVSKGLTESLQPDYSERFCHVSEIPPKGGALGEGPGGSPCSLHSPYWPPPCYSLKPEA


Experiments:
IL2-Rα-his [1] = biological target: T1, IL2-Rα-his; test: Octet BLI per Example 2, IL-2Rα-his as analyte at the concentration on the x axis; y axis on the sheet reads OD490
Procedure: (§1) 2. The experiment was performed with reference to the experimental design below. The whole experiment was completed under the conditions of 30° C., 1000 rpm, 220 μl/well. The proteins used in the experiment were IL2-Rα-his and IL-2 variants or derivatives thereof obtained by transient expression in HEK293 and affinity purification.
(§2) Experimental data were processed using Data Analysis software 9.0. […] The method of global fitting was applied, i.e., the 6 concentrations were analyzed as a group.

[2] = biological target: T2, IL-2Rβ/γ-Fc heterodimer (IL-2Rβ-Fc-hole …); test: Octet BLI per Example 3, IL-2Rβ/γ-Fc heterodimer as analyte at the concentration on the x axis; y axis on the sheet reads OD490
Procedure: as §2

[3] = biological target: T3, IL-2Rβ/γ receptor subunit complex on …; test: cell-based or functional assay
[4] = biological target: T2, IL-2Rβ/γ-Fc heterodimer (IL-2Rβ-Fc-hole …); test: BLI (Octet RED96e), AR2G sensors, IL-2Rβ/γ-Fc heterodimer as analyte, 1:1 global fit
Procedure: as §2

IL2-Rα-his [5] = biological target: T1, IL2-Rα-his; test: BLI (Octet RED96e), AR2G sensors, IL-2Rα-his as analyte, 1:1 global fit
Procedure: as §1, §2

Row | Binder | binding result (IL2-Rα-his [1]) | EC50 (read off the curve) [2] | Relative activity (CTLL-2 cell proliferation, CCK-8) [3] | Kd [4] | EC50 (read off the curve) (IL2-Rα-his [1]) | Kd (IL2-Rα-his [5])
1 | IL-2-6 (35-41 + 43-45 + 125) (ligand, Human IL-2 variant; HEK293 expression, purified by the HPC4 tag; not shown: HPC4 tag at the C-terminus) APTSSSTKKTQLQLEHLLLDLQMILNGINNYKNPMHGLDGFGMPKKATELKHLQCLEEELKPLEEVLNLAQSKNFHLRPRDLISNINVIVLELKGSETTFMCEYADETATIVEFLNRWITFAQSIISTLT | no binding (tested: 500 nM) | ~100 nM | 13% | 19.6 nM | – | –
2 | IL-2-8 (35-43 + 125) (ligand, Human IL-2 variant; HEK293 expression, purified by the HPC4 tag; not shown: HPC4 tag at the C-terminus) APTSSSTKKTQLQLEHLLLDLQMILNGINNYKNPMGGLGGFYMPKKATELKHLQCLEEELKPLEEVLNLAQSKNFHLRPRDLISNINVIVLELKGSETTFMCEYADETATIVEFLNRWITFAQSIISTLT | no binding (tested: 1000 nM) | ~100 nM | 8% | 21.3 nM | – | –
3 | IL-2-1 (31-32 + 35-41 + 43-45 + 125) (ligand, Human IL-2 variant; HEK293 expression, purified by the HPC4 tag; not shown: HPC4 tag at the C-terminus) APTSSSTKKTQLQLEHLLLDLQMILNGINNGGNPMHGLDGFGMPKKATELKHLQCLEEELKPLEEVLNLAQSKNFHLRPRDLISNINVIVLELKGSETTFMCEYADETATIVEFLNRWITFAQSIISTLT | no binding (tested: 500 nM) | ~100 nM | 13% | 17.9 nM | – | –
4 | IL-2-2 (35-41 + 125) (ligand, Human IL-2 variant; HEK293 expression, purified by the HPC4 tag; not shown: HPC4 tag at the C-terminus) APTSSSTKKTQLQLEHLLLDLQMILNGINNYKNPMHGLDGFKFYMPKKATELKHLQCLEEELKPLEEVLNLAQSKNFHLRPRDLISNINVIVLELKGSETTFMCEYADETATIVEFLNRWITFAQSIISTLT | – | ~100 nM | 64% | 4.87 nM | ~60 nM | 0.789 nM
5 | IL-2-5 (31-32 + 35-41 + 125) (ligand, Human IL-2 variant; HEK293 expression, purified by the HPC4 tag; not shown: HPC4 tag at the C-terminus) APTSSSTKKTQLQLEHLLLDLQMILNGINNGGNPMHGLDGFKFYMPKKATELKHLQCLEEELKPLEEVLNLAQSKNFHLRPRDLISNINVIVLELKGSETTFMCEYADETATIVEFLNRWITFAQSIISTLT | – | ~100 nM | 90% | 5.24 nM | ~60 nM | 0.904 nM
6 | IL-2-4 (43-45 + 125) (ligand, Human IL-2 variant; HEK293 expression, purified by the HPC4 tag; not shown: HPC4 tag at the C-terminus) APTSSSTKKTQLQLEHLLLDLQMILNGINNYKNPKLTRMLTFGMPKKATELKHLQCLEEELKPLEEVLNLAQSKNFHLRPRDLISNINVIVLELKGSETTFMCEYADETATIVEFLNRWITFAQSIISTLT | – | ~100 nM | 100% | 4.11 nM | ~60 nM | 0.799 nM

Further binders by falling Kd [4], results first:

Row | binding result (IL2-Rα-his [1]) | EC50 (read off the curve) [2] | Relative activity (CTLL-2 cell proliferation, CCK-8) [3] | Kd [4] | EC50 (read off the curve) (IL2-Rα-his [1]) | Kd (IL2-Rα-his [5]) | Binder
7 | no binding (tested: 500 nM) | ~100 nM | 8% | 27.2 nM | – | – | IL-2-9 (35-41 + 43-45 + 125) (ligand, Human IL-2 variant; HEK293 expression, purified by the HPC4 tag; not shown: HPC4 tag at the C-terminus) APTSSSTKKTQLQLEHLLLDLQMILNGINNYKNPGGGGGGFGMPKKATELKHLQCLEEELKPLEEVLNLAQSKNFHLRPRDLISNINVIVLELKGSETTFMCEYADETATIVEFLNRWITFAQSIISTLT
8 | – | ~100 nM | 58% | 6.48 nM | ~70 nM | 3.25 nM | IL-2-7 (31-32 + 43-45 + 125) (ligand, Human IL-2 variant; HEK293 expression, purified by the HPC4 tag; not shown: HPC4 tag at the C-terminus) APTSSSTKKTQLQLEHLLLDLQMILNGINNGGNPKLTRMLTFGMPKKATELKHLQCLEEELKPLEEVLNLAQSKNFHLRPRDLISNINVIVLELKGSETTFMCEYADETATIVEFLNRWITFAQSIISTLT
9 | – | ~100 nM | 100% | 3.74 nM | ~60 nM | 0.656 nM | IL-2-3 (31-32 + 125) (ligand, Human IL-2 variant; HEK293 expression, purified by the HPC4 tag; not shown: HPC4 tag at the C-terminus) APTSSSTKKTQLQLEHLLLDLQMILNGINNGGNPKLTRMLTFKFYMPKKATELKHLQCLEEELKPLEEVLNLAQSKNFHLRPRDLISNINVIVLELKGSETTFMCEYADETATIVEFLNRWITFAQSIISTLT
